Results as given in the supplement of paper PMC7125110.
± gives the standard error. Fewer inactive variants are shown than the library holds.

B1: glmS ribozyme (parent)
chain: AUAAAAGCGCCAGAACUACAGAAAUGUAGUUGACGAGGAGGAGGUUUAUCGAAUUUUCGGCGGAUGCCUCCAAA

Tests used:
Settings in all cases: with glucosamine-6-phosphate
glucosamine-6-phosphate [1] = variants of: B1; test: self-cleavage kobs at 640 uM GlcN6P; higher = faster cleavage; RNA array
In short: (§1)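 Weighted Michaelis–Menten fits across concentrations supplied kcat and KM, based on kobs from one- or two-exponential decay fits to normalised per-tile medians. The data came from barcoded ribozyme variants transcribed in situ by E. coli RNA polymerase on sequenced MiSeq chips and tracked at 37 °C by a hybridised Cy3 probe. Glucosamine-6-phosphate (40 μM to 10 mM) in HEPES/KCl/Mg(OAc)2 buffer was flowed in.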

glucosamine-6-phosphate [2] = variants of: B1; test: self-cleavage kobs at 2500 uM GlcN6P; higher = faster cleavage; RNA array
In short: as §1

glucosamine-6-phosphate [3] = variants of: B1; test: self-cleavage kobs at 10000 uM GlcN6P; higher = faster cleavage; RNA array
In short: as §1

Variant | self-cleavage kobs at 640 uM GlcN6P (glucosamine-6-phosphate [1]) [s⁻¹] | self-cleavage kobs at 2500 uM GlcN6P (glucosamine-6-phosphate [2]) [s⁻¹] | self-cleavage kobs at 10000 uM GlcN6P (glucosamine-6-phosphate [3]) [s⁻¹]
A33C G59A C67U | < 1e-05 |  | 
A6G A42C C58U | < 1e-05 | < 1e-05 | 
C10U G13C A15U C16U C50G | 0.000145 ± 6.3e-05 | 0.000146 ± 5.6e-05 | 
C11A G44U A48G C61A | < 1e-05 |  | 
A6G A53G C61A | < 1e-05 | < 1e-05 | 
U31G G38A U57C C58U G66C | < 1e-05 |  | 
C8A C16A G63U A64G U65C C71G | < 1e-05 |  | 
A6G U47G C61A A64U | < 1e-05 |  | 
C10U G32C G35A | < 1e-05 | < 1e-05 | 
G40A A42U A48U | < 1e-05 |  | 
A6G G40A C67U | < 1e-05 | < 1e-05 | 
G35A G38U A42C U55C | < 1e-05 |  | 
C61G A64G C71G | 0.000141 ± 3.7e-05 |  | 
A14U A36G G40A G41A U54A U57A C71U | < 1e-05 |  | 
A36U C50G G66U | 0.00107 ± 0.0003 |  | 
A12C C58U C70U | 6.75e-05 ± 2.5e-05 | 7.09e-05 ± 3.2e-05 | 
G43C U69G | < 1e-05 |  | < 1e-05
C16A U56G U65G | 5.32e-05 ± 2.4e-05 | 0.000165 ± 5.6e-05 | 
A48G C50U A52U C70G | 4.03e-05 ± 2e-05 |  | 
C10A G62U C70G | 9.92e-05 ± 3.7e-05 | 0.000143 ± 4.8e-05 | 
A6G C11U G51U | < 1e-05 |  | 
A15U G38U G40C A52U C58U C61G | < 1e-05 |  | 
G7A G38C C58A | < 1e-05 | < 1e-05 | 

Variant | self-cleavage kobs at 640 uM GlcN6P (glucosamine-6-phosphate [1]) [s⁻¹] | self-cleavage kobs at 2500 uM GlcN6P (glucosamine-6-phosphate [2]) [s⁻¹] | self-cleavage kobs at 10000 uM GlcN6P (glucosamine-6-phosphate [3]) [s⁻¹]
A12C G26A G51U A53G C68G | 0.000191 ± 5.2e-05 | 0.000139 ± 4.6e-05 | 
A6U C16U G40U C67A | < 1e-05 | < 1e-05 | 
C34G A39U U49G | < 1e-05 |  | 
G38A C61A G62C | < 1e-05 | < 1e-05 | < 1e-05
A12C G44U | 9.03e-05 ± 1.7e-05 | 8.38e-05 ± 2.6e-05 | 0.000382 ± 5.4e-05
A6G A14C G38U | < 1e-05 |  | < 1e-05
G7U C8A G13A | < 1e-05 |  | 
G7U C16U U30G | < 1e-05 |  | 
C8A U45C C67U | < 1e-05 |  | 
G29U A48U C61U | < 1e-05 |  | 
U30G C34U G35A C68A | 0.00169 ± 0.00067 |  | 
G7U G29U A48C | < 1e-05 | < 1e-05 | < 1e-05
G13C G43U G59U | < 1e-05 | < 1e-05 | 
C8G U55C C71A | < 1e-05 | < 1e-05 | 
A12U A33G A48C | < 1e-05 | < 1e-05 | 
G9A U47G U49G | < 1e-05 |  | 
C11U A48U G66U | < 1e-05 |  | 
A6U C11G C68A C70G | < 1e-05 | < 1e-05 | 
C34G G44U C50U C71U | < 1e-05 | < 1e-05 | 
G9A G40C G44A G59U | < 1e-05 |  | 
U31C A48G G60A | < 1e-05 | < 1e-05 | 
G13U A14G G29C U49A | < 1e-05 |  | 
G9U U47A | < 1e-05 | < 1e-05 | 

Variant | self-cleavage kobs at 640 uM GlcN6P (glucosamine-6-phosphate [1]) [s⁻¹] | self-cleavage kobs at 2500 uM GlcN6P (glucosamine-6-phosphate [2]) [s⁻¹] | self-cleavage kobs at 10000 uM GlcN6P (glucosamine-6-phosphate [3]) [s⁻¹]
A53U C58U C67U | 9.41e-05 ± 4.6e-05 |  | 
C8A U55G G63U | < 1e-05 |  | 
A36G A39C A52U U57A | < 1e-05 |  | 
U47A G63A | < 1e-05 |  | 
U30G G40A U56G | 6.26e-05 ± 2e-05 | 0.00032 ± 7.3e-05 | 
A15U U45A G66U | 4.46e-05 ± 1.6e-05 |  | 
A14G U69A C70A | 5.74e-05 ± 2.2e-05 | 8.42e-05 ± 1.9e-05 | 
G40U C50A G51A | < 1e-05 |  | 
C8U G9U C68A | < 1e-05 | < 1e-05 | 
U31C G66A C68A U69G | 7.97e-05 ± 4e-05 | 4.91e-05 ± 1.6e-05 | 
G40A G41A C71A | 6.52e-05 ± 1.3e-05 | 9.76e-05 ± 1.9e-05 | 
A15G G38U G59C | < 1e-05 |  | 
G7A U55C C58G | < 1e-05 |  | 
A39G U46C U47G U65A | 0.0001 ± 3.8e-05 |  | 
A6U G29A U31A G43C U46G C58G | < 1e-05 | < 1e-05 | 
C16U U55A C68U | 0.000364 ± 0.00011 | 0.00062 ± 0.00021 | 
C8G G13C G38U C50G | 4.5e-05 ± 2.2e-05 |  | 
A15G U45A A53G | 0.0131 ± 0.0027 |  | 
A33U U57A C58U C70A C71G | 9.76e-05 ± 2.5e-05 |  | 
G7C A39C G40C G44U | < 1e-05 |  | 
A12G G32U G44C G60A C70G | < 1e-05 |  | 
A6G C50G C71G | 0.000369 ± 7.4e-05 | 9.48e-05 ± 2.2e-05 | 
A12G A39G C50A | < 1e-05 |  | 
